From patent US20260144882A1 (BIO THERA SOLUTIONS, published 2026) come the findings set out here.

Several values for one entry are separate records, joined by “and”; a condition that tells them apart may be missing. Equal entries are not always repeated. Where two headings read alike, the source gives them in different places.

In experiment [1] the target is T1, human Nectin-4 extracellular antigen hNectin-4-His (human, UniProt Q96NY8 32-349).
T1 construct: C-terminal 8xHis tag included
T1 sequence: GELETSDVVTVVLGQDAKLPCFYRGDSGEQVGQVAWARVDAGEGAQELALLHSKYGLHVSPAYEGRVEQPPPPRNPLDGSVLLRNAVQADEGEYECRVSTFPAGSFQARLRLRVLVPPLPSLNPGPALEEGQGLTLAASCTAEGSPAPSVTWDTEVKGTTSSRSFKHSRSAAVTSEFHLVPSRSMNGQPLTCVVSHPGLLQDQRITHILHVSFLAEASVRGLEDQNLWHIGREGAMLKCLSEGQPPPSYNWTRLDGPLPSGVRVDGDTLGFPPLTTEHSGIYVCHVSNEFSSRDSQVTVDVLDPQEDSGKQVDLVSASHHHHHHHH
Put plainly: ELISA, coated antigen. From the text:
(§1) The binding activity of the antibodies was detected by ELISA.
(§2) In this assay, the binding of different antibodies to human Nectin-4 homologous proteins hNectin-1 (ACRO, PV1-H5223), hNectin-2 (ACRO, PV2-H52E2), hNectin-3 (ACRO, PV3-H52E4), and hNectin-4-His was detected by ELISA to determine the specificity of the antibodies. For the methodology and procedures, see Example 4. Antigens of interest ([…]) were immobilized; after blocking, serially diluted antibodies (2-fold serially diluted from […]) were added, and HRP-labeled anti-human-Kappa secondary antibody was added for chromogenic reaction.

The target of experiment [2] is T2, hNectin-2 (ACRO, PV2-H52E2) (human, UniProt Q92692 32-360).
T2 construct: bought; construct not described
T2 sequence (looked up): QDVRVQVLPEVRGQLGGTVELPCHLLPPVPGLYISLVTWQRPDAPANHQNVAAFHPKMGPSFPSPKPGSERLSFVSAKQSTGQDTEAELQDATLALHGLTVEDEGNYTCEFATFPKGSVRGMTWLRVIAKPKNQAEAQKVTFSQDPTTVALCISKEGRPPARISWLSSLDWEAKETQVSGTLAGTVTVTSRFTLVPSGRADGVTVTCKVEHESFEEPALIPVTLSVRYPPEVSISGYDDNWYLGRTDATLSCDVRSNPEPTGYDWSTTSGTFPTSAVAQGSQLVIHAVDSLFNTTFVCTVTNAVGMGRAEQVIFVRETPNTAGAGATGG
Put plainly: ELISA, coated antigen.
Source text: as §1, §2
Background: In an ELISA, binding on a coated surface is turned into a signal by an enzyme label.

The target of experiment [3] is T3, hNectin-1 (ACRO, PV1-H5223) (human, UniProt Q15223 31-334).
T3 construct: bought; construct not described
T3 sequence (looked up): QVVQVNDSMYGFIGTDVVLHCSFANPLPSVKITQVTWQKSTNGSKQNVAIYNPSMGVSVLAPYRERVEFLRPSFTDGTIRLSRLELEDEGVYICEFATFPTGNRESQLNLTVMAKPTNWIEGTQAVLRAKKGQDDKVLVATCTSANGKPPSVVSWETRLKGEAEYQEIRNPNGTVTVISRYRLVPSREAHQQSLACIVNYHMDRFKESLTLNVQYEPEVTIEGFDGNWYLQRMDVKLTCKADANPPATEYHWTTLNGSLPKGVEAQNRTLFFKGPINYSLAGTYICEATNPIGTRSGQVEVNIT
Put plainly: ELISA, coated antigen.
Source text: as §1, §2

Experiment [4] has as its target T1, human Nectin-4 extracellular antigen …. In words: SPR, antibody on Protein A chip, hNectin-4-His analyte, 1:1 fit. The text has this:
(§3) In this study, the affinity of the antibodies for the human Nectin-4 extracellular antigen was detected by surface plasmon resonance (SPR) technique (BIAcore: GE Healthcare, T200).
A general note: In SPR one partner is held on a chip, and binding of the other changes the refractive index at the surface.

Experiment [5] has the same target. In words: ELISA, coated antigen. The source holds these as a separate data set.
The target in experiment [6] is T4, monkey cNectin-4 protein (ACRO, NE4-C52H4) (cynomolgus monkey, UniProt A0A2K5WES1 32-349).
T4 construct: bought; construct not described; also called cynomolgus monkey Nectin-4
T4 sequence: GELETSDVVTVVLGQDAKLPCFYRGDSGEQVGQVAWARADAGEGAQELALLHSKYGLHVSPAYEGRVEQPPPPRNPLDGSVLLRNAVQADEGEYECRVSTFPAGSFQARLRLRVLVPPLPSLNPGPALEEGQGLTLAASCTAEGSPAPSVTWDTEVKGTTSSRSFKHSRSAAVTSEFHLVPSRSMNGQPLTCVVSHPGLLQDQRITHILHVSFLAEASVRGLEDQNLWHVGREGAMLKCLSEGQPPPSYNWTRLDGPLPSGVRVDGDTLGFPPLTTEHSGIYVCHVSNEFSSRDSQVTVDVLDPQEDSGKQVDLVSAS
In words: ELISA, coated antigen.

Experiment [7] concerns the target T1, human Nectin-4 extracellular antigen …. In words: SPR, antibody on Protein A chip, 1:1 fit.
Source text: as §3

Experiment [8] has as its target T5, human Nectin-4, full length on cells (human, UniProt Q96NY8 32-510).
T5 construct: whole, on cells; T-47D cells positive for Nectin-4 expression; also called Nectin-4 on T-47D cells; CHO-Nectin-4
T5 sequence (looked up): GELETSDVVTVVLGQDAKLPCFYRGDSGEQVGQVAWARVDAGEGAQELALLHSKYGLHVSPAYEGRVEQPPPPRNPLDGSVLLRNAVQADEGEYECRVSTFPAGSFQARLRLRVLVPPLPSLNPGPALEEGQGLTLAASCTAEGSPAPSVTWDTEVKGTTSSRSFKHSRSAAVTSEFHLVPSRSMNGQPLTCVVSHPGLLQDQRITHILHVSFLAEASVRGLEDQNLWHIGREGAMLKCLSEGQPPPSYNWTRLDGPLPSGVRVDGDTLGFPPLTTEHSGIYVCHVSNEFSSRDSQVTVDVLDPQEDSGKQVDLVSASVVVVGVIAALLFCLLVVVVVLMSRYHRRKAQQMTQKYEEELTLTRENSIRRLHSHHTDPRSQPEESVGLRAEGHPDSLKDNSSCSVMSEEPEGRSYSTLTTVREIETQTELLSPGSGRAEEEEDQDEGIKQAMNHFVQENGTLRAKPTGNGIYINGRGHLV
Put plainly: flow cytometry on T-47D cells. The protocol:
In this study, the binding activity of different antibodies to T-47D cells positive for Nectin-4 expression was detected by FACS, and the EC₅₀ for the binding of antibodies to the cells was analyzed by a four-parameter method. The procedures are briefly described as follows: T-47D cells (the Cell Bank of Chinese Academy of Sciences, TCHu 87) were trypsinized; the antibodies were serially diluted and co-incubated with T-47D cells at 4° C. for 0.5-1 h, followed by the addition of the secondary PE-labeled anti-human Fc antibody (Invitrogen, 12-4998-82); the signal intensity of red fluorescence was detected on a flow cytometer, and curves were plotted using Graphpad Prism and the EC₅₀ was calculated.
In general terms: A flow cytometer gives signals particle by particle.

By EC50 is commonly meant the concentration at which the effect is half-maximal. Broadly, the Kd is the equilibrium constant for the complex coming apart. One may read the koff as the rate constant with which the complex falls apart. Usually kon stands for a measure of how fast the partners come together.

B1: antibody 1G8 (antibody, human IgG1, kappa, V domains shown)
VH: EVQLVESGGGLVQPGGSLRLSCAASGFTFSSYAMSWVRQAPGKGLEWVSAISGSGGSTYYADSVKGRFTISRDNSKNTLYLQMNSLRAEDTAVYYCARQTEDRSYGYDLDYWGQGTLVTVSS
VL: DIQMTQSPSSLSASVGDRVTITCRASQGISSYLAWYQQKPGKAPKLLIYAASSLQSGVPSRFSGSGSGTDFTLTISSLQPEDFATYYCQQHYTTPPTFGQGTKVEIKR
Regarding B1, the EC50 in experiment [1] was 0.041 µg/mL; in experiment [5] it was 0.043 µg/mL; in experiment [6], 0.036 µg/mL; in experiment [8], 0.109 µg/mL and 0.727 nM. Further, the binding result in experiment [2] and in experiment [3] was “no binding (tested: 2-fold serially diluted from 2 g/mL)” throughout. Also, the Kd in experiment [4] and in experiment [7] was 4.97 nM each time. The koff in experiment [4] and in experiment [7] was 0.003 s⁻¹ each time. Moreover, the kon in experiment [4] and in experiment [7] was 605000 M⁻¹ s⁻¹ each time.

B2: antibody 10F4 (antibody, human IgG1, kappa, V domains shown)
VH: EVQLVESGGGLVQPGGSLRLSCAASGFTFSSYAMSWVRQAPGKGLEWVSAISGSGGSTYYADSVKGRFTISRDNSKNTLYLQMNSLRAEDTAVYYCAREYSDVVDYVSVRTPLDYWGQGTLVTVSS
VL: DIQMTQSPSSLSASVGDRVTITCRASQGISSYLAWYQQKPGKAPKLLIYAASSLQSGVPSRFSGSGSGTDFTLTISSLQPEDFATYYCQQHYTTPPTFGQGTKVEIKR
As for B2, the EC50 in experiment [1] is 0.045 µg/mL; in experiment [5] it was 0.041 µg/mL; in experiment [6], 0.041 µg/mL; in experiment [8], 0.156 µg/mL and 1.04 nM. For the same molecule, the binding result in experiment [2] and in experiment [3] was “no binding (tested: 2-fold serially diluted from 2 g/mL)” in each case. Besides, the dissociation constant (Kd) in experiment [4] stood at 2.77 nM; in experiment [7], 3.23 nM. Besides, the koff in experiment [4] was 0.00103 s⁻¹; in experiment [7], 0.00121 s⁻¹. Also, the on-rate constant (kon) was found to be 373000 M⁻¹ s⁻¹ in experiment [4] and 375000 M⁻¹ s⁻¹ in experiment [7].

B3: antibody 1F3 (antibody, human IgG1, kappa, V domains shown)
VH: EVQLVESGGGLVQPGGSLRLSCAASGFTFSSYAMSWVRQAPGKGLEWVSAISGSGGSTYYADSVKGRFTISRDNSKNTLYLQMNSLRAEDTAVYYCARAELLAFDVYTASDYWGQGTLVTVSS
VL: DIQMTQSPSSLSASVGDRVTITCRASQGISSYLAWYQQKPGKAPKLLIYAASSLQSGVPSRFSGSGSGTDFTLTISSLQPEDFATYYCQQHYTTPPTFGQGTKVEIKR
Take B3: the EC50 in experiment [1] was 0.04 µg/mL; in experiment [5], 0.036 µg/mL; in experiment [6], 0.034 µg/mL; in experiment [8] it was 0.116 µg/mL and 0.77 nM. In addition, the binding result in experiment [2] and in experiment [3] was “no binding (tested: 2-fold serially diluted from 2 g/mL)” in each case. Further, the Kd in experiment [4] amounted to 3.21 nM; in experiment [7], 2.49 nM. Further, the values for the koff in experiment [4] and in experiment [7] were 0.00261 s⁻¹ and 0.00195 s⁻¹, respectively. Also, the figures for the kon in experiment [4] and in experiment [7] were 813000 M⁻¹ s⁻¹ and 785000 M⁻¹ s⁻¹, respectively.
